Experimental data published in PMC6315623.

biological target: BS69 MYND domain (residues 427-602) fused to a B42 activation domain (UniProt Q15326); assay: yeast two-hybrid (β-galactosidase activity); settings: n = 3; parent: est. 1; read off a plot
Sequence (Q15326 427-602): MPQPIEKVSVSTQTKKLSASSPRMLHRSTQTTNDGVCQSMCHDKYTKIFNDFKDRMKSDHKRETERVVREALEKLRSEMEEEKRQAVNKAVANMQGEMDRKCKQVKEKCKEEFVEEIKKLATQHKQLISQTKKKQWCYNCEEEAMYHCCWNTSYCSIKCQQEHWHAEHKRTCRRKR

Compared with “HAdV-D9 E1A PXLXP motif fragment, wildtype, LexA DBD fusion I9V”, “HAdV-D9 E1A PXLXP motif fragment, wildtype, LexA DBD fusion P10C” is higher in response (% of HAdV-A12 positive control): 1 for the first, 1.5 for the second.

First: HAdV-D9 E1A PXLXP motif fragment, wildtype, LexA DBD fusion T3P
Second: HAdV-D9 E1A PXLXP motif fragment, wildtype, LexA DBD fusion T5V
The response (% of HAdV-A12 positive control) of the first is higher: 59 for the first, 1 for the second.
